Assay results published in article PMC3460914, “The Polyoma Virus Large T Binding Protein p150 Is a Transcriptional Repressor of c-MYC”.

T1: GST-p150 (human, UniProt F5H433 1-1005)
T1 sequence: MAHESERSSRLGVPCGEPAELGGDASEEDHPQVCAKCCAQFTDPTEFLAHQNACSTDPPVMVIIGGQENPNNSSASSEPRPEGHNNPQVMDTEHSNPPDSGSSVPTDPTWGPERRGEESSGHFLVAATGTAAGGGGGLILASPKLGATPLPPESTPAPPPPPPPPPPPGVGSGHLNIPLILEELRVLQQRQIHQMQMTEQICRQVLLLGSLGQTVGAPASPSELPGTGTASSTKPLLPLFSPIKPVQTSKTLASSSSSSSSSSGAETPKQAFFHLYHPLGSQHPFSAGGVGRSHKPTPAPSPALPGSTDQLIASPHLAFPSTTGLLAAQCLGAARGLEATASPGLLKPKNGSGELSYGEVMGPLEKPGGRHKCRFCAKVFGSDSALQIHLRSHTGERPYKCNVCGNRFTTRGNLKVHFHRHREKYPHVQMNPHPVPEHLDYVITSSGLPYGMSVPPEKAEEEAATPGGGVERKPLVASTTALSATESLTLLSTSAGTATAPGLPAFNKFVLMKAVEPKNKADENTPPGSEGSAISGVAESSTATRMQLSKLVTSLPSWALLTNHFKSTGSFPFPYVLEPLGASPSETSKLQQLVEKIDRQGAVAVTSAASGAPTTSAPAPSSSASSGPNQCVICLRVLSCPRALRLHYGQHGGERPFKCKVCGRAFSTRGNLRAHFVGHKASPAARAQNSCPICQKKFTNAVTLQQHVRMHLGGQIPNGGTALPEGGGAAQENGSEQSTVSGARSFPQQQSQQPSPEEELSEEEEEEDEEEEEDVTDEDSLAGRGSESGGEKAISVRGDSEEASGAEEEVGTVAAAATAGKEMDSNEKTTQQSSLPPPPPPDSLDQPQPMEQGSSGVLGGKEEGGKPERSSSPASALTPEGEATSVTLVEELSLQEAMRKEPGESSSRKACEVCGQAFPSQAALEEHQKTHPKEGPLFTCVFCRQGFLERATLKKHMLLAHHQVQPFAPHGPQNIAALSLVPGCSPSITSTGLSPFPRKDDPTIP


What was measured:
[1] = target: T1, GST-p150; assay: EMSA; 100 ng protein, 200 ng poly(dA-dT); 10 mM HEPES pH 7.5, 25 nM KCl (so in the source), 2.5 mM MgCl (so in the source), 5 µl ZnCl, 3% glycerol, 2 µg BSA, 200 ng poly(dA-dT); temperature not stated; details: protein: recombinant; tags: GST; label: 32P (probe); blunt
[2] = target: T1, GST-p150; assay: competition; 50x unlabeled Oct1 vs labeled NHE III1; 10 mM HEPES pH 7.5, 25 nM KCl (so in the source), 2.5 mM MgCl (so in the source), 5 µl ZnCl, 3% glycerol, 2 µg BSA, 200 ng poly(dA-dT); temperature not stated; details: protein: recombinant; tags: GST; blunt

Row | Binder | binding result [1] | binding result [2]
1 | p150 consensus sequence (CS) (dsDNA) DNA 1: GGATCACTGGGTGGGAATCACGCT DNA 2: AGCGTGATTCCCACCCAGTGATCC | binds | –
2 | NHE III1 of c-MYC promoter (dsDNA) DNA 1: TGGGGAGGGTGGGGAGGGTGGGGAAGG DNA 2: CCTTCCCCACCCTCCCCACCCTCCCCA | binds | –
3 | Oct1 binding site (dsDNA) DNA 1: TGTCGAATGCAAATCACTAGAA DNA 2: TTCTAGTGATTTGCATTCGACA | – | no binding
